Target: T1, recombinant human PSGL-1 Fc fusion protein (human)
T1 sequence (Q14242 whole entry, looked up): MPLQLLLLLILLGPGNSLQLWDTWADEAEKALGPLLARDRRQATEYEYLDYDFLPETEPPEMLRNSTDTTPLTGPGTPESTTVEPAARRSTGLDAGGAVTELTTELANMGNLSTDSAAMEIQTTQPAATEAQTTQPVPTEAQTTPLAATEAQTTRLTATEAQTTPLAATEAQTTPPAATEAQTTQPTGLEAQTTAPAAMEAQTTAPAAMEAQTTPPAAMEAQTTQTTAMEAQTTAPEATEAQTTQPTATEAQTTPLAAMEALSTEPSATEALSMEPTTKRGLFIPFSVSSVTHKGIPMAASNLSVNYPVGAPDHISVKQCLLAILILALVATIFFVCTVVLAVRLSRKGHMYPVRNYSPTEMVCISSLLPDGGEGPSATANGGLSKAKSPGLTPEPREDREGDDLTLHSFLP
Assay: ELISA; EC50 of biotinylated P- and L-selectin binding to PSGL-1; the titration itself is not described, the values are given in the competition protocol

For “biotinylated P-selectin (from UniProt P16109 42-771) (natural protein)”, which EC50 is on record?
Its EC50 is 1 nM.

B1: biotinylated L-selectin (natural protein)
chain: WTYHYSEKPMNWQRARRFCRDNYTDLVAIQNKAEIEYLEKTLPFSRSYYWIGIRKIGGIWTWVGTNKSLTEEAENWGDGEPNNKKNKEDCVEIYIKRNKDAGKWNDDACHKLKAALCYTASCQPWSCSGHGECVEIINNYTCNCDVGYYGPQCQFVIQCEPLEAPELGTMDCTHPLGNFSFSSQCAFSCSEGTNLTGIEETTCGPFGNWSSPEPTCQVIQCEPLSAPDLGIMNCSHPLASFSFTSACTFICSEGTELIGKKKTICESSGIWSNPSPICQKLDKSFSMIKEGDYN
modifications: biotinylated
B1 was tested. Which EC50 did it give?
Its EC50 is 40 nM.
